Results reported in the supplement of paper PMC10567573.
± gives the standard deviation.

Assay: protein stability index of a GFP-peptide fusion (GPS, HEK-293T) (PSI 1-6); higher = more stable
[1] = treatment: DMSO, c terminus: a fixed tail appended
[2] = treatment: MLN4924 1 uM, 8 h, c terminus: a fixed tail appended
[3] = treatment: DMSO, c terminus: native
[4] = treatment: MLN4924 1 uM, 8 h, c terminus: native
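Further: 24-mer peptide tiles fused after GFP, lentivirally expressed, FACS-sorted into six equal bins by GFP/DsRed ratio, decoded by Illumina sequencing, PSI is the read-weighted mean bin number.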

Sequence | protein stability index [1] | protein stability index [2] | protein stability index [3] | protein stability index [4]
SAGNAPLNEEINIASSDSEVEIVG [C18orf25] | 5.27 ± 0.31 | 5.46 ± 0.19 | – | –
KERAAGGGAGSSEDDAQSRRDEQD [GOLPH3] | 5.65 ± 0.35 | 5.67 ± 0.15 | – | –
ERHSDLPPLNPTSWWADLRALARN [SPNS1] | 3.34 ± 0.5 | 3.34 ± 0.38 | – | –
SAMLLVTLGKVLKVIVVMRSLFID [MED27] | 2.9 ± 0.45 | 2.85 ± 0.73 | – | –
NLAFGRRCEELEDARYKLHHHLHK [TEKT4] | 3.2 ± 0.22 | 3.2 ± 0.16 | – | –
QRRASTVSSVTQVEVDENAYRCGS [NET1] | 5.01 ± 0.45 | 5.02 ± 0.2 | – | –
MGATRCDFTLSKTNMARIREIMEK [CPXM2] | 2.96 ± 0.088 | 3.3 ± 0.31 | – | –
AGQLMGFFKGIDQDIERGVQSEIF [LYSMD4] | 2.71 ± 0.33 | 2.75 ± 0.34 | – | –
PIPVVFVLRHFHLLSDGSNTLSVS [SLC6A17] | 2.83 ± 0.81 | 2.84 ± 0.47 | – | –
FHEDGPQGPGGDEDDDEEDTDKLL [PSD2] | 5.55 ± 0.32 | 5.59 ± 0.2 | – | –
AGPQSQVLCGVVMDRSLVQDAPLS [ADD1] | 3.62 ± 0.2 | 3.59 ± 0.11 | – | –
LNKLYPTHACREYLKNLPLLSKYC [TPH1] | 2.41 ± 0.45 | 2.23 ± 0.46 | – | –
LLGATKRSMVFKDVLLLGNDYIVP [HNF4A] | 2.28 ± 0.34 | 2.3 ± 0.11 | – | –
WSECSRTCGEGYQFRVVRCWKMLS [ADAMTSL2] | 3.1 ± 1.8 | 2.19 ± 0.34 | – | –
FGGMKSSGIGREGAKDSYDFFTEI [ALDH8A1] | 2.22 ± 0.66 | 2.52 ± 0.27 | – | –
HGNLSEEAAKQMRSRGKVLKTKDG [CPOX] | 5.22 ± 0.2 | 5.41 ± 0.2 | – | –
VQLHNGTKYKKFPHWLDKWMLTRK [STEAP1] | 2.36 ± 0.044 | 2.19 ± 0.096 | – | –
RMEKGEPYMSIQPAEDPDDYDDGF [SMARCE1] | 5.61 ± 0.076 | 5.54 ± 0.27 | – | –
KYTPSNKHGFSWAVPKFMKRIKVP [DLC1] | 2.49 ± 0.36 | 2.6 ± 0.44 | – | –
SEAQLTDAETSKLIYDFIEDQGGL [WAS] | 4.53 ± 0.38 | 4.62 ± 0.23 | – | –
RGFFFSHVGWLLVRKHPAVKEKGS [SCD] | 2.31 ± 0.6 | 2.5 ± 0.17 | – | –
ADLRLGGQPAPPQLLLGRLFRWPD [SMAD6] | 2.84 ± 0.13 | 2.83 ± 0.23 | – | –
IVSRATGRCLEVEMSKDANFGLRL [GALNT9] | 2.66 ± 0.76 | 2.72 ± 0.67 | – | –

Sequence | protein stability index [1] | protein stability index [2] | protein stability index [3] | protein stability index [4]
SKYGRDWERYTAAVPYRLLPGIF [DHCR7] | – | – | 2.87 ± 0.4 | 2.57 ± 0.46
AVLLQLYVATEAILIALVGATPSY [SLC22A15] | 3.33 ± 0.37 | 3.26 ± 0.52 | – | –
QARLRDVSRREGALGWAPAAPPPL [ZBED3] | 3.44 ± 0.41 | 3.6 ± 0.35 | – | –
ELVENIKSVLKSDEEHMEEAITSA [FAM189A2] | 3.64 ± 0.16 | 3.79 ± 0.41 | – | –
QHIDNITQIEDATEKLKANAESSK [TRIM14] | 5.46 ± 0.065 | 5.33 ± 0.39 | – | –
TPFLTNHGAHKAEKKLFECLTCGK [ZNF263] | 3.32 ± 0.34 | 3.53 ± 0.67 | – | –
LKTLEEGLEGLEDAPPVELQLLHE [FANCE] | 4.81 ± 0.26 | 4.91 ± 0.38 | – | –
LKLQTKDGHRPEWTFYPRFSSNIH [SPATS1] | 2.4 ± 0.3 | 2.48 ± 0.32 | – | –
EKSGSAEPFVLPASSVESTLPVLE [FBXO34] | 5.08 ± 0.39 | 5.01 ± 0.34 | – | –
EGEEDATSEVDKRRTRPRHHHGRS [CHGB] | 5.35 ± 0.47 | 5.33 ± 0.28 | – | –
VHASGWNKILVPLVLLRQMLLELT [BCL2L13] | 2.2 ± 0.3 | 2.3 ± 0.24 | – | –
KKWGINTYKCTKQLLSERFGRGSR [ARFIP2] | 2.65 ± 0.28 | 2.86 ± 0.53 | – | –
YILLVGYPPFWDEDQHRLYQQIKA [CAMK2D] | 2.46 ± 0.099 | 2.54 ± 0.67 | – | –
QDEVPDEVENQFILRLPLEHACTV [TAF7L] | 4.395 ± 0.043 | 4.47 ± 0.13 | – | –
YVRLVCKDVRAPSRPAVGPPQPGC [ZSWIM9] | 2.22 ± 0.23 | 2.4 ± 0.27 | – | –
AMTGTFPAYGMSPSLSTITSTSSS [DVL3] | 3.68 ± 0.24 | 3.61 ± 0.17 | – | –
TRVNLSSDTESTDLPSSTPVANSG [DLC1] | 5.05 ± 0.1 | 5.26 ± 0.11 | – | –
TGTKKVTRILDGGNPFLDVPQALS [PSD2] | 3.24 ± 0.36 | 3.4 ± 0.12 | – | –
DTQYGSSVDIWAIGCVFAELLTGQ [CDKL4] | 2.8 ± 0.59 | 2.37 ± 0.46 | – | –
ELSPLALGRFSLTPAEGDTEEDDG [CDC25B] | 5.44 ± 0.18 | 5.44 ± 0.43 | – | –
KPLFCGNSEADQLGKIFDLIGLPP [CDK4] | 2.62 ± 0.15 | 2.71 ± 0.28 | – | –
RLIKELAKYEYMEEQVILTEKDLL [SAT1] | 2.34 ± 0.34 | 2.18 ± 0.25 | – | –
SELDADHPGFKDNVYRKRRKYFAD [TPH1] | 4.13 ± 0.21 | 4.19 ± 0.2 | – | –

Sequence | protein stability index [1] | protein stability index [2] | protein stability index [3] | protein stability index [4]
KSRRKAALSSPRSRKNATQPPNAE [INTS3] | 5.08 ± 0.33 | 4.98 ± 0.39 | – | –
QQSPAAVSMETYHVTLTLPPTQLE [C2CD2L] | 3.37 ± 0.35 | 3.48 ± 0.35 | – | –
VPGTQVGQGGKLWDPSVQSCKEGL [ZNF263] | 4.12 ± 0.12 | 4.26 ± 0.18 | – | –
ILTGCKNMLFQQNKDGIGEICLWG [ACSBG2] | 3.01 ± 1.4 | 2.92 ± 0.44 | – | –
PLQLLREMRQALQALLKENRLLQE [CBY2] | 2.93 ± 0.28 | 3.4 ± 0.51 | – | –
PRNADKIRVKIADLGNACWVHKHF [SRPK2] | 2.26 ± 0.12 | 2.42 ± 1.3 | – | –
VTVSDASWVSELLWSLFVPFTVYQ [AUP1] | 2.87 ± 0.55 | 3.14 ± 0.47 | – | –
HGSGSSLVVIQQPSLDSRQRLDYE [SPRY1] | 4.12 ± 0.28 | 3.99 ± 0.31 | – | –
DHVDLSLSCTLVPRSGEQAEGSPG [CDKN1A] | 4.91 ± 0.17 | 5.08 ± 0.23 | – | –
TRGHAISILFGFWTSFICDTYIVL [SMIM2] | 2.73 ± 0.4 | 2.78 ± 0.46 | – | –
AEELALEQAKKESEDQKRLKQAKE [CHCHD3] | 5.72 ± 0.22 | 5.41 ± 0.29 | – | –
PQDYKKRLSVELTSSLFRTEPMAW [CTNNB1] | 2.67 ± 0.24 | 2.8 ± 0.21 | – | –
DQEHNVAALKQAIKDKEAPLHVAQ [TEKT4] | 5.11 ± 0.19 | 5.18 ± 0.15 | – | –
YQYIQSRFYRSPEVLLGTPYDLAI [DYRK1B] | 2.18 ± 0.41 | 2.29 ± 0.35 | – | –
KGISSHSRSSLMPLRNDVDKRGET [SLC2A12] | 5 ± 0.39 | 5.06 ± 0.22 | – | –
SQVSMWDQRWQDHQPLLPITDVP [APBB1IP] | – | – | 2.63 ± 0.55 | 3.22 ± 0.51
MVPVENTEGPSLLNQKGTAVETEG [SLC2A12] | 5.62 ± 0.19 | 5.11 ± 0.3 | – | –
RSSHSSDSGGSDVDLDPTDGKLFP [ELF3] | 5.34 ± 0.17 | 5.26 ± 0.32 | – | –
QKTSGQHMIQGAGSLEKALPIIQS [DLC1] | 3.86 ± 0.26 | 4.18 ± 0.097 | – | –
KNVEENLYSSSLGGGVATSPMLIV [GLT8D2] | 2.26 ± 0.26 | 2.06 ± 0.22 | – | –
LVGDRDVGKSEILESLQDGAAESP [RAB40A] | 5.57 ± 0.17 | 5.48 ± 0.21 | – | –
EESEEERGLEPGKGRHHRGRGGEP [CHGB] | 5.59 ± 0.17 | 5.51 ± 0.25 | – | –
PETLTNLRKGYLFMYNLVQFLGFS [HACD3] | 2.34 ± 0.56 | 2.04 ± 0.34 | – | –

Sequence | protein stability index [1] | protein stability index [2] | protein stability index [3] | protein stability index [4]
AQHKFLVAVESMEPNNIVVLLQTS [TCF25] | 2.58 ± 0.54 | 2.35 ± 0.56 | – | –
RPEGYNLKDEEGKLKDLSTVTSLQ [PPP2R2C] | 5.12 ± 0.23 | 5.29 ± 0.17 | – | –
HPPSHWPLIKATVGLIRNLALCPA [CTNNB1] | 2.65 ± 0.53 | 2.81 ± 0.88 | – | –
GSFNGSEKETMQFLNDRLANYLEK [KRT36] | 3.38 ± 0.28 | 3.58 ± 0.3 | – | –
YSYVYQDGLRLLGARARGVAMLGV [SOAT2] | 2.55 ± 0.59 | 2.25 ± 0.21 | – | –
VVVCQCGLSIPSHSSELTEQKLRA [RPAIN] | 2.1 ± 0.43 | 2.36 ± 0.38 | – | –
KDTRMAEEYCHKHYDRNKDGNKDV [VPS39] | 4.68 ± 0.21 | 5.03 ± 0.23 | – | –
DVDEDEPGGLVGSADVVSPSGHSD [PPFIA4] | 5.66 ± 0.36 | 5.47 ± 0.12 | – | –
CGKSFSRSSHLVIHERTHERERLY [ZNF263] | 2.71 ± 0.13 | 2.86 ± 0.33 | – | –
LLKTEALKRQAQEEAKGALLGTSG [DAPK3] | 4.89 ± 0.15 | 4.47 ± 0.12 | – | –
SKCQRLFRSPSMPCSVIRPILKRL [CDC25B] | 2.85 ± 0.2 | 2.65 ± 0.24 | – | –
TYWEHWTSQGQVRMRLFGQRCQKC [RTP4] | 2.33 ± 0.43 | 2.72 ± 0.57 | – | –
MVPGTRHSAVLRDLRSGTLYSLTL [TNXB] | 2.91 ± 0.58 | 2.03 ± 0.52 | – | –
DLHFKMFDVGGQRSERKKWIHCFE [GNAI1] | 1.73 ± 0.25 | 2.64 ± 0.35 | – | –
GSKQYSAAIAFTLALFSHLVNHVN [SMG5] | 3.39 ± 0.34 | 3.14 ± 0.43 | – | –
FRVAKKRAPKVLGTTLVVGLLAGV [GDAP1] | 2.47 ± 0.86 | 1.82 ± 0.61 | – | –
SPSVMRLVHTQEPGEWLELLLEPG [ALKBH7] | 2.83 ± 0.23 | 3 ± 0.24 | – | –
TETEATNSLITAPGEFSDASMSPD [SMAD6] | 5.42 ± 0.2 | 5.28 ± 0.37 | – | –
ELRRLFLVQDLVDSLKFAVLMWLL [RTN1] | 2.18 ± 0.56 | 2.2 ± 0.29 | – | –
RPGETGMDVTSRCTLGDPNKLPEG [KLHL20] | 5.16 ± 0.31 | 5.11 ± 0.14 | – | –
